Source: the supplement of paper PMC10567573

B1: BTBD10 (parent)
chain: FVYENAKEGARNIRTSERVTLIVD
B2: C8orf76 (parent)
chain: KLAEAYLNLGPALSAALASSQKQH

Variants of: B1
Test: protein stability index of a GFP-peptide fusion (GPS, HEK-293T) (PSI 1-6); higher = more stable
Conditions: c terminus: a fixed tail appended
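Also: lentivirally expressed fusions sorted by FACS into six bins by GFP to DsRed ratio, PSI derived from sequencing read proportions per bin multiplied by bin number.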

Protein stability index, by site and new letter:
G9: H 1.72 | M 2.47 | D 2.49 | V 1.77 | F 2.31 | I 1.74 | T 2.09 | N 2.15 | A 1.85 | P 2.02 | C 1.83 | E 2.33 | S 1.8 | K 1.7 | Q 2.09 | Y 1.41 | R 2.17 | L 2.12
I13: H 2.4 | M 1.64 | W 1.68 | D 2.52 | Q 2.38 | S 2.44 | K 2 | F 2.43 | G 2.31 | P 2.21 | Y 2.37 | T 2.4 | A 1.77 | C 1.8 | R 2.4 | L 2.5 | E 2.34 | V 2.06 | N 2.52
R14: C 1.83 | A 2.17
N12: F 2.65 | C 1.51 | P 2.65 | W 3.12 | Q 1.7 | K 2.19 | S 1.97 | H 1.5 | V 1.17 | R 1.96 | L 1.34 | G 1.98 | T 1.93 | D 1.93 | Y 2.61 | A 1.82 | I 1.84 | E 2.08 | M 1.56
E8: L 2.29 | P 2.44 | N 1.81 | Y 1.94 | C 2.11 | Q 1.8 | A 1.52 | T 2.11 | D 2.28 | W 2.04 | K 1.93 | I 1.87 | G 1.86 | F 1.86 | V 1.47 | M 2.11 | R 2.83 | H 2.25 | S 1.72
A6: Q 1.96 | K 2.13 | S 1.78 | T 2.5 | E 2.8 | I 1.79 | C 1.82 | F 1.8 | H 2.1 | L 1.69 | P 2.41 | M 2.08 | D 2.67 | G 1.97 | R 1.84 | V 1.85 | Y 1.57 | W 2.05 | N 2.43
V2: I 2.37 | R 3.04 | W 1.97 | D 3.56 | T 3.08 | N 3.58 | Y 2.45 | E 3.83 | P 3.53 | S 3.27 | Q 3.07 | G 3.31 | C 2.33 | H 3.07 | A 2.78 | K 3.06 | F 2.31 | L 2.41 | M 2.6
K7: P 2.4 | Y 1.75 | E 2.74 | Q 2.19 | F 1.85 | I 2.5 | G 1.99 | N 2.54 | A 2.23 | M 1.82 | C 2.32 | T 2.11 | H 1.95 | V 1.93 | W 1.63 | L 1.42 | D 2.58 | R 1.86 | S 2.56
E4: H 2.16 | T 2.18 | I 2.35 | N 1.57 | S 1.66 | R 1.91 | A 1.82 | P 1.69 | Y 1.92 | C 2.56 | M 1.91 | V 2.83 | K 2.25 | L 1.48 | G 1.75 | F 1.65 | D 2.08 | Q 1.94 | W 1.83
F1: A 3.21 | D 3.29 | L 3.05 | K 3.28 | R 3.3 | C 2.5 | T 3.06 | G 3.33 | Y 2.27 | V 3.7 | P 3.46 | Q 2.9 | M 3.78 | N 3.75 | S 3.23 | W 2.55 | E 3.94 | I 2.71 | H 3.69
N5: M 1.61 | W 3.23 | P 2.52 | I 1.61 | H 2.19 | Y 1.61 | R 1.95 | L 1.34 | V 1.63 | T 2.25 | E 2.35 | Q 2.64 | F 1.9 | A 1.9 | G 2.47 | K 1.94 | D 2.21 | C 2.42 | S 1.54
Y3: P 1.72 | H 2.11 | V 2.22 | L 1.92 | N 2.48 | G 2.35 | M 2.2 | I 2.26 | S 1.96 | A 2.08 | D 3.22 | F 2.12 | T 2.22 | R 2.73 | W 2.19 | C 2.17 | Q 2.62 | E 3.75 | K 2.08
R11: D 2.82 | Q 2.16 | F 2.38 | V 2.3 | I 1.75 | H 2.16 | E 3.09 | S 2.18 | G 2.31 | C 2.07 | K 1.9 | M 1.59 | T 2.19 | L 2.67 | N 1.83 | A 2.29 | P 1.84 | Y 1.59
A10: L 1.89 | H 1.58 | S 2.01 | G 2.08 | Y 1.86 | N 2.16 | D 2.26 | K 2.32 | C 1.84 | W 2.32 | P 2.7 | M 1.62 | I 2 | F 2.18 | T 2.03 | V 2.1 | R 2.2 | E 2.79 | Q 2.05

Variants of: B2
Test: as above
Conditions: c terminus: a fixed tail appended

Protein stability index of substitutions, site by site:
A16: D 2.18 | P 2.39 | T 2.12 | L 3.68 | Q 2.38
L9: H 2.26 | I 3.05 | G 2.68 | W 3.02
Y6: K 3.18 | N 3.58 | H 2.3
A12: I 2.25
A18: P 2.04 | M 3.46 | H 2.73 | F 3 | T 1.52 | C 1.6
S19: N 3 | W 2.57 | H 3.15 | D 1.89 | P 2.08 | C 2.07
Q23: L 2.86 | F 2.92 | A 3.15 | V 2.9
K1: Y 2.63
S20: K 1.6 | P 2.23 | E 1.3
H24: M 3.02 | E 1.47 | A 4.29 | I 2.4 | D 1.67
L13: T 2.65 | F 2.03 | V 1.48 | H 2.23 | C 2.77 | R 2.24 | Y 2.14
K22: Q 2.76 | P 4.17 | H 2.52 | L 3.34 | E 4.71
S14: Y 2.35
E4: H 3.03 | S 1.31 | F 1.94 | Y 2.55 | D 2.2
N8: D 2.07 | R 3.8 | V 3.33
L17: D 2.94 | V 1.59 | T 1.95 | R 2.45
A5: Y 4.03 | E 2.96
P11: E 2.52
G10: E 1.87 | D 1.88 | R 1.94 | M 2.77
A3: K 1.93 | E 1.85
L7: C 2.36 | I 2.59 | S 2.21
L2: S 3.07 | I 2.6 | Y 1.97 | D 3.38
Q21: P 2.18 | I 2.71 | M 3.44
A15: I 3.79 | F 2.78 | E 2.26 | D 2.32 | R 2.34
